# Data: patent US20230279118A1 (published 2023)
# Several values for one entry are separate records, joined by “and”; a condition that tells them apart may be missing. Equal entries are not always repeated.
# Target: T1, canine FcRn (canine)
# T1 construct: Injected in solution as SPR analyte
# Experiment: SPR, pH 5.5, FcRn 100-800 nM over captured Fc
Binder,Kd [nM],koff [s⁻¹],kon [M⁻¹ s⁻¹]
canine IgG.B Fc YTE variant (L252Y/A254T/T256E) with SASA tag (Fc fusion) APEMLGGPSVFIFPPKPKDTLYITREPEVTCVVVDLDPEDPEVQISWFVDGKQMQTAKTQPREEQFNGTYRVVSVLPIGHQDWLKGKQFTCKVNNKALPSPIERTISKARGQAHQPSVYVLPPSREELSKNTVSLTCLIKDFFPPDIDVEWQSNGQQEPESKYRTTPPQLDEDGSYFLYSKLSVDKSRWQRGDTFICAVMHEALHNHYTQESLSHSPGK,184,0.046,250000
canine IgG.B Fc variant N434H with SASA tag (Fc fusion) APEMLGGPSVFIFPPKPKDTLLIARTPEVTCVVVDLDPEDPEVQISWFVDGKQMQTAKTQPREEQFNGTYRVVSVLPIGHQDWLKGKQFTCKVNNKALPSPIERTISKARGQAHQPSVYVLPPSREELSKNTVSLTCLIKDFFPPDIDVEWQSNGQQEPESKYRTTPPQLDEDGSYFLYSKLSVDKSRWQRGDTFICAVMHEALHHHYTQESLSHSPGK,247,0.102,411000

# Next, values leading:
Kd [nM],koff [s⁻¹],kon [M⁻¹ s⁻¹],Binder
29.1,0.0151,520000,canine IgG.B Fc variant N434Y with SASA tag (Fc fusion) APEMLGGPSVFIFPPKPKDTLLIARTPEVTCVVVDLDPEDPEVQISWFVDGKQMQTAKTQPREEQFNGTYRVVSVLPIGHQDWLKGKQFTCKVNNKALPSPIERTISKARGQAHQPSVYVLPPSREELSKNTVSLTCLIKDFFPPDIDVEWQSNGQQEPESKYRTTPPQLDEDGSYFLYSKLSVDKSRWQRGDTFICAVMHEALHYHYTQESLSHSPGK
101,0.045,446000,canine IgG.B Fc variant N434W with SASA tag (Fc fusion) APEMLGGPSVFIFPPKPKDTLLIARTPEVTCVVVDLDPEDPEVQISWFVDGKQMQTAKTQPREEQFNGTYRVVSVLPIGHQDWLKGKQFTCKVNNKALPSPIERTISKARGQAHQPSVYVLPPSREELSKNTVSLTCLIKDFFPPDIDVEWQSNGQQEPESKYRTTPPQLDEDGSYFLYSKLSVDKSRWQRGDTFICAVMHEALHWHYTQESLSHSPGK

# Target: T1, canine FcRn
# Experiment: SPR, pH 5.5, FcRn 400 nM over captured Fc
Binder,Kd,kon,koff
canine IgG.B Fc variant M428A with SASA tag (Fc fusion) APEMLGGPSVFIFPPKPKDTLLIARTPEVTCVVVDLDPEDPEVQISWFVDGKQMQTAKTQPREEQFNGTYRVVSVLPIGHQDWLKGKQFTCKVNNKALPSPIERTISKARGQAHQPSVYVLPPSREELSKNTVSLTCLIKDFFPPDIDVEWQSNGQQEPESKYRTTPPQLDEDGSYFLYSKLSVDKSRWQRGDTFICAVAHEALHNHYTQESLSHSPGK,723 nM and 1670 nM,234000 M⁻¹ s⁻¹ and 318000 M⁻¹ s⁻¹,–
canine IgG.B Fc variant G309A with SASA tag (Fc fusion) APEMLGGPSVFIFPPKPKDTLLIARTPEVTCVVVDLDPEDPEVQISWFVDGKQMQTAKTQPREEQFNGTYRVVSVLPIAHQDWLKGKQFTCKVNNKALPSPIERTISKARGQAHQPSVYVLPPSREELSKNTVSLTCLIKDFFPPDIDVEWQSNGQQEPESKYRTTPPQLDEDGSYFLYSKLSVDKSRWQRGDTFICAVMHEALHNHYTQESLSHSPGK,245 nM and 294 nM,–,–
canine IgG.B Fc variant I308A with SASA tag (Fc fusion) APEMLGGPSVFIFPPKPKDTLLIARTPEVTCVVVDLDPEDPEVQISWFVDGKQMQTAKTQPREEQFNGTYRVVSVLPAGHQDWLKGKQFTCKVNNKALPSPIERTISKARGQAHQPSVYVLPPSREELSKNTVSLTCLIKDFFPPDIDVEWQSNGQQEPESKYRTTPPQLDEDGSYFLYSKLSVDKSRWQRGDTFICAVMHEALHNHYTQESLSHSPGK,472 nM and 563 nM,357000 M⁻¹ s⁻¹ and 345000 M⁻¹ s⁻¹,0.169 s⁻¹ and 0.194 s⁻¹
canine IgG.B Fc variant A254S with SASA tag (Fc fusion) APEMLGGPSVFIFPPKPKDTLLISRTPEVTCVVVDLDPEDPEVQISWFVDGKQMQTAKTQPREEQFNGTYRVVSVLPIGHQDWLKGKQFTCKVNNKALPSPIERTISKARGQAHQPSVYVLPPSREELSKNTVSLTCLIKDFFPPDIDVEWQSNGQQEPESKYRTTPPQLDEDGSYFLYSKLSVDKSRWQRGDTFICAVMHEALHNHYTQESLSHSPGK,340 nM and 317 nM,–,–
canine IgG.B Fc variant L252A with SASA tag (Fc fusion) APEMLGGPSVFIFPPKPKDTLAIARTPEVTCVVVDLDPEDPEVQISWFVDGKQMQTAKTQPREEQFNGTYRVVSVLPIGHQDWLKGKQFTCKVNNKALPSPIERTISKARGQAHQPSVYVLPPSREELSKNTVSLTCLIKDFFPPDIDVEWQSNGQQEPESKYRTTPPQLDEDGSYFLYSKLSVDKSRWQRGDTFICAVMHEALHNHYTQESLSHSPGK,292 nM and 240 nM,–,–
canine IgG.B Fc variant N434A with SASA tag (Fc fusion) APEMLGGPSVFIFPPKPKDTLLIARTPEVTCVVVDLDPEDPEVQISWFVDGKQMQTAKTQPREEQFNGTYRVVSVLPIGHQDWLKGKQFTCKVNNKALPSPIERTISKARGQAHQPSVYVLPPSREELSKNTVSLTCLIKDFFPPDIDVEWQSNGQQEPESKYRTTPPQLDEDGSYFLYSKLSVDKSRWQRGDTFICAVMHEALHAHYTQESLSHSPGK,457 nM and 494 nM,518000 M⁻¹ s⁻¹ and 966000 M⁻¹ s⁻¹,0.237 s⁻¹ and 0.477 s⁻¹
canine IgG.B Fc variant H433A with SASA tag (Fc fusion) APEMLGGPSVFIFPPKPKDTLLIARTPEVTCVVVDLDPEDPEVQISWFVDGKQMQTAKTQPREEQFNGTYRVVSVLPIGHQDWLKGKQFTCKVNNKALPSPIERTISKARGQAHQPSVYVLPPSREELSKNTVSLTCLIKDFFPPDIDVEWQSNGQQEPESKYRTTPPQLDEDGSYFLYSKLSVDKSRWQRGDTFICAVMHEALANHYTQESLSHSPGK,266 nM and 359 nM,–,0.229 s⁻¹ and 0.0997 s⁻¹
canine IgG.B Fc variant D378A with SASA tag (Fc fusion) APEMLGGPSVFIFPPKPKDTLLIARTPEVTCVVVDLDPEDPEVQISWFVDGKQMQTAKTQPREEQFNGTYRVVSVLPIGHQDWLKGKQFTCKVNNKALPSPIERTISKARGQAHQPSVYVLPPSREELSKNTVSLTCLIKDFFPPDIAVEWQSNGQQEPESKYRTTPPQLDEDGSYFLYSKLSVDKSRWQRGDTFICAVMHEALHNHYTQESLSHSPGK,673 nM and 592 nM,272000 M⁻¹ s⁻¹ and 306000 M⁻¹ s⁻¹,0.183 s⁻¹ and 0.181 s⁻¹
canine IgG.B Fc variant K315A with SASA tag (Fc fusion) APEMLGGPSVFIFPPKPKDTLLIARTPEVTCVVVDLDPEDPEVQISWFVDGKQMQTAKTQPREEQFNGTYRVVSVLPIGHQDWLAGKQFTCKVNNKALPSPIERTISKARGQAHQPSVYVLPPSREELSKNTVSLTCLIKDFFPPDIDVEWQSNGQQEPESKYRTTPPQLDEDGSYFLYSKLSVDKSRWQRGDTFICAVMHEALHNHYTQESLSHSPGK,422 nM and 548 nM,–,–

# Further lines, results first:
Kd,kon,koff,Binder
335 nM and 328 nM,–,–,canine IgG.B Fc variant T250A with SASA tag (Fc fusion) APEMLGGPSVFIFPPKPKDALLIARTPEVTCVVVDLDPEDPEVQISWFVDGKQMQTAKTQPREEQFNGTYRVVSVLPIGHQDWLKGKQFTCKVNNKALPSPIERTISKARGQAHQPSVYVLPPSREELSKNTVSLTCLIKDFFPPDIDVEWQSNGQQEPESKYRTTPPQLDEDGSYFLYSKLSVDKSRWQRGDTFICAVMHEALHNHYTQESLSHSPGK
393 nM and 876 nM,–,0.407 s⁻¹ and 0.213 s⁻¹,canine IgG.B Fc variant Y436A with SASA tag (Fc fusion) APEMLGGPSVFIFPPKPKDTLLIARTPEVTCVVVDLDPEDPEVQISWFVDGKQMQTAKTQPREEQFNGTYRVVSVLPIGHQDWLKGKQFTCKVNNKALPSPIERTISKARGQAHQPSVYVLPPSREELSKNTVSLTCLIKDFFPPDIDVEWQSNGQQEPESKYRTTPPQLDEDGSYFLYSKLSVDKSRWQRGDTFICAVMHEALHNHATQESLSHSPGK
464 nM and 569 nM,422000 M⁻¹ s⁻¹ and 533000 M⁻¹ s⁻¹,0.196 s⁻¹ and 0.304 s⁻¹,canine IgG.B Fc variant T286A with SASA tag (Fc fusion) APEMLGGPSVFIFPPKPKDTLLIARTPEVTCVVVDLDPEDPEVQISWFVDGKQMQAAKTQPREEQFNGTYRVVSVLPIGHQDWLKGKQFTCKVNNKALPSPIERTISKARGQAHQPSVYVLPPSREELSKNTVSLTCLIKDFFPPDIDVEWQSNGQQEPESKYRTTPPQLDEDGSYFLYSKLSVDKSRWQRGDTFICAVMHEALHNHYTQESLSHSPGK
368 nM and 370 nM,2.43e+06 M⁻¹ s⁻¹ and 1.34e+06 M⁻¹ s⁻¹,0.894 s⁻¹ and 0.496 s⁻¹,canine IgG.B Fc variant Q311A with SASA tag (Fc fusion) APEMLGGPSVFIFPPKPKDTLLIARTPEVTCVVVDLDPEDPEVQISWFVDGKQMQTAKTQPREEQFNGTYRVVSVLPIGHADWLKGKQFTCKVNNKALPSPIERTISKARGQAHQPSVYVLPPSREELSKNTVSLTCLIKDFFPPDIDVEWQSNGQQEPESKYRTTPPQLDEDGSYFLYSKLSVDKSRWQRGDTFICAVMHEALHNHYTQESLSHSPGK
341 nM and 257 nM,–,–,canine IgG.B Fc variant Q285A with SASA tag (Fc fusion) APEMLGGPSVFIFPPKPKDTLLIARTPEVTCVVVDLDPEDPEVQISWFVDGKQMATAKTQPREEQFNGTYRVVSVLPIGHQDWLKGKQFTCKVNNKALPSPIERTISKARGQAHQPSVYVLPPSREELSKNTVSLTCLIKDFFPPDIDVEWQSNGQQEPESKYRTTPPQLDEDGSYFLYSKLSVDKSRWQRGDTFICAVMHEALHNHYTQESLSHSPGK
325 nM and 338 nM,–,–,canine IgG.B Fc variant P307A with SASA tag (Fc fusion) APEMLGGPSVFIFPPKPKDTLLIARTPEVTCVVVDLDPEDPEVQISWFVDGKQMQTAKTQPREEQFNGTYRVVSVLAIGHQDWLKGKQFTCKVNNKALPSPIERTISKARGQAHQPSVYVLPPSREELSKNTVSLTCLIKDFFPPDIDVEWQSNGQQEPESKYRTTPPQLDEDGSYFLYSKLSVDKSRWQRGDTFICAVMHEALHNHYTQESLSHSPGK
447 nM and 298 nM,–,–,canine IgG.B Fc variant T256A with SASA tag (Fc fusion) APEMLGGPSVFIFPPKPKDTLLIARAPEVTCVVVDLDPEDPEVQISWFVDGKQMQTAKTQPREEQFNGTYRVVSVLPIGHQDWLKGKQFTCKVNNKALPSPIERTISKARGQAHQPSVYVLPPSREELSKNTVSLTCLIKDFFPPDIDVEWQSNGQQEPESKYRTTPPQLDEDGSYFLYSKLSVDKSRWQRGDTFICAVMHEALHNHYTQESLSHSPGK

# Target: T1, canine FcRn
# Experiment: SPR, pH 5.5, FcRn 200 nM over captured Fc
Kd,koff,kon,Binder
573 nM and 629 nM,0.156 s⁻¹ and 0.164 s⁻¹,272000 M⁻¹ s⁻¹ and 261000 M⁻¹ s⁻¹,canine IgG.B Fc variant N434A with SASA tag (Fc fusion) APEMLGGPSVFIFPPKPKDTLLIARTPEVTCVVVDLDPEDPEVQISWFVDGKQMQTAKTQPREEQFNGTYRVVSVLPIGHQDWLKGKQFTCKVNNKALPSPIERTISKARGQAHQPSVYVLPPSREELSKNTVSLTCLIKDFFPPDIDVEWQSNGQQEPESKYRTTPPQLDEDGSYFLYSKLSVDKSRWQRGDTFICAVMHEALHAHYTQESLSHSPGK
15.9 nM,0.00968 s⁻¹,607000 M⁻¹ s⁻¹,canine IgG.B Fc variant N434Y with SASA tag (Fc fusion) APEMLGGPSVFIFPPKPKDTLLIARTPEVTCVVVDLDPEDPEVQISWFVDGKQMQTAKTQPREEQFNGTYRVVSVLPIGHQDWLKGKQFTCKVNNKALPSPIERTISKARGQAHQPSVYVLPPSREELSKNTVSLTCLIKDFFPPDIDVEWQSNGQQEPESKYRTTPPQLDEDGSYFLYSKLSVDKSRWQRGDTFICAVMHEALHYHYTQESLSHSPGK
40.4 nM and 75.7 nM,–,–,canine IgG.B Fc variant N434W with SASA tag (Fc fusion) APEMLGGPSVFIFPPKPKDTLLIARTPEVTCVVVDLDPEDPEVQISWFVDGKQMQTAKTQPREEQFNGTYRVVSVLPIGHQDWLKGKQFTCKVNNKALPSPIERTISKARGQAHQPSVYVLPPSREELSKNTVSLTCLIKDFFPPDIDVEWQSNGQQEPESKYRTTPPQLDEDGSYFLYSKLSVDKSRWQRGDTFICAVMHEALHWHYTQESLSHSPGK
924 nM and 1050 nM,0.207 s⁻¹ and 0.209 s⁻¹,225000 M⁻¹ s⁻¹ and 199000 M⁻¹ s⁻¹,canine IgG.B Fc variant N434S with SASA tag (Fc fusion) APEMLGGPSVFIFPPKPKDTLLIARTPEVTCVVVDLDPEDPEVQISWFVDGKQMQTAKTQPREEQFNGTYRVVSVLPIGHQDWLKGKQFTCKVNNKALPSPIERTISKARGQAHQPSVYVLPPSREELSKNTVSLTCLIKDFFPPDIDVEWQSNGQQEPESKYRTTPPQLDEDGSYFLYSKLSVDKSRWQRGDTFICAVMHEALHSHYTQESLSHSPGK
